Experimental data from publication PMC4717663 (2014).

Biological target: pro-TGF-β1 (Homo sapiens, UniProt P01137)
Sequence (P01137 30-278, chain 1 of 2): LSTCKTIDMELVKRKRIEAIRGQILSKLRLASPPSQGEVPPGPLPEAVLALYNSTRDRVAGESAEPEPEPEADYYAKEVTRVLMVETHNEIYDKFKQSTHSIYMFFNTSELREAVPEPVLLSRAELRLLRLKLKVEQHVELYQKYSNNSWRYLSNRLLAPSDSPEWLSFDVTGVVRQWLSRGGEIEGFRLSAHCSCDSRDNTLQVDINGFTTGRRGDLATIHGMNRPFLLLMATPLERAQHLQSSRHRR
Sequence (P01137 279-390, chain 2 of 2): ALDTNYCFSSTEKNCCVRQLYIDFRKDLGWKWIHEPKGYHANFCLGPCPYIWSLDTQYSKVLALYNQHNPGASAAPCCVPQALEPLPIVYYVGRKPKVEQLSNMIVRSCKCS

B1: integrin αVβ6 (protein)
chain 1: FNLDVDSPAEYSGPEGSYFGFAVDFFVPSASSRMFLLVGAPKANTTQPGIVEGGQVLKCDWSSTRRCQPIEFDATGNRDYAKDDPLEFKSHQWFGASVRSKQDKILACAPLYHWRTEMKQEREPVGTCFLQDGTKTVEYAPCRSQDIDADGQGFCQGGFSIDFTKADRVLLGGPGSFYWQGQLISDQVAEIVSKYDPNVYSIKYNNQLATRTAQAIFDDSYLGYSVAVGDFNGDGIDDFVSGVPRAARTLGMVYIYDGKNMSSLYNFTGEQMAAYFGFSVAATDINGDDYADVFIGAPLFMDRGSDGKLQEVGQVSVSLQRASGDFQTTKLNGFEVFARFGSAIAPLGDLDQDGFNDIAIAAPYGGEDKKGIVYIFNGRSTGLNAVPSQILEGQWAARSMPPSFGYSMKGATDIDKNGYPDLIVGAFGVDRAILYRARPVITVNAGLEVYPSILNQDNKTCSLPGTALKVSCFNVRFCLKADGKGVLPRKLNFQVELLLDKLKQKGAIRRALFLYSRSPSHSKNMTISRGGLMQCEELIAYLRDESEFRDKLTPITIFMEYRLDYRTAADTTGLQPILNQFTPANISRQAHILLDCGEDNVCKPKLEVSVDSDQKKIYIGDDNPLTLIVKAQNQGEGAYEAELIVSIPLQADFIGVVRNNEALARLSCAFKTENQTRQVVCDLGNPMKAGTQLLAGLRFSVHQQSEMDTSVKFDLQIQSSNLFDKVSPVVSHKVDLAVLAAVEIRGVSSPDHVFLPIPNWEHKENPETEEDVGPVVQHIYELRNNGPSSFSKAMLHLQWPYKYNNNTLLYILHYDIDGPMNCTSDMEINPLRIKISSLQTTEKNDTVAGQGERDHLITKRDLALSEGDIHTLGCGVAQCLKIVCQVGRLDRGKSAILYVKSLLWTETFMNKENQNHSYSLKSSASFNVIEFPYKNLPIEDITNSTLVTTNVTWGIQPAPMPV
chain 2: GCALGGAETCEDCLLIGPQCAWCAQENFTHPSGVGERCDTPANLLAKGCQLNFIENPVSQVEILKNKPLSVGRQKNSSDIVQIAPQSLILKLRPGGAQTLQVHVRQTEDYPVDLYYLMDLSASMDDDLNTIKELGSRLSKEMSKLTSNFRLGFGSFVEKPVSPFVKTTPEEIANPCSSIPYFCLPTFGFKHILPLTNDAERFNEIVKNQKISANIDTPEGGFDAIMQAAVCKEKIGWRNDSLHLLVFVSDADSHFGMDSKLAGIVIPNDGLCHLDSKNEYSMSTVLEYPTIGQLIDKLVQNNVLLIFAVTQEQVHLYENYAKLIPGATVGLLQKDSGNILQLIISAYEELRSEVELEVLGDTEGLNLSFTAICNNGTLFQHQKKCSHMKVGDTASFSVTVNIPHCERRSRHIIIKPVGLGDALELLVSPECNCDCQKEVEVNSSKCHHGNGSFQCGVCACHPGHMGPRCECGEDMLSTDSCKEAPDHPSCSGRGDCYCGQCICHLSPYGNIYGPYCQCDNFSCVRHKGLLCGGNGDCDCGECVCRSGWTGEYCNCTTSTDSCVSEDGVLCSGRGDCVCGKCVCTNPGASGPTCERCPTCGDPCNSKRSCIECHLSAAGQAREECVDKCKLAGATISEEEDFSKDGSVSCSLQGENECLITFLITTDNEGKTIIHSINEKDCPKPPNIP
Kd: ~10 nM
